The experiment deals with T1, CD19 (UniProt P15391 20-556, limits assumed).
T1 sequence (looked up): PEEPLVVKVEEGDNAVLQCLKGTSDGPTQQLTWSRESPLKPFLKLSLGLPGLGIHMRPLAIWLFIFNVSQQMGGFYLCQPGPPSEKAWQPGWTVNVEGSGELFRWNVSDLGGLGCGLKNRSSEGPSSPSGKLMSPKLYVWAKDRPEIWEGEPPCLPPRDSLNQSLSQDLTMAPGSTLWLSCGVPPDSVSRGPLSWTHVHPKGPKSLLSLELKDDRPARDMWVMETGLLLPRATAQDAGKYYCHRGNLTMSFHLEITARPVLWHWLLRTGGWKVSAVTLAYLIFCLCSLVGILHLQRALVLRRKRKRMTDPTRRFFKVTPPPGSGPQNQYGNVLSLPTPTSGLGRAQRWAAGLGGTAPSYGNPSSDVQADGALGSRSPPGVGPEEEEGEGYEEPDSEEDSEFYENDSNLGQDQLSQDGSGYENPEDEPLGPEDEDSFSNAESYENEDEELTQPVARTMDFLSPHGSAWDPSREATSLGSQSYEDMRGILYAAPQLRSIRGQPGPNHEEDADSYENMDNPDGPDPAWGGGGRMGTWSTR
In words: cell-based or functional assay.

B1: αCD19-SDIE (antibody, human IgG1, V domains shown)
VH: EVQLQQSGPELIKPGASVKMSCKASGYTFTSYVMHWVKQKPGQGLEWIGYINPYNDGTKYNEKFKGKATLTSDKSSSTAYMELSSLTSEDSAVYYCARGTYYYGSRVFDYWGQGTTLTVSS
VL: DIVMTQAAPSIPVTPGESVSISCRSSKSLLNSNGNTYLYWFLQRPGQSPQLLIYRMSNLASGVPDRFSGSGSGTAFTLRISRVEAEDVGVYYCMQHLEYPFTFGAGTKLELK
Take B1: the “inhibition of proliferation of NALM16 cells with PBMC (3H-thymidine uptake, 2 days)” value was about 60%.

(Values after patent US20180044391A1 (DEUTSCHES KREBSFORSCHUNGSZENTRUM, published 2018).)
